Experimental data reported in the supplement of paper PMC11246515.
± gives the standard deviation of the averaged measurements.

Assay: total protein half-life in vivo (active degradation + dilution); higher = more stable protein
[1] = E. coli NCM3722 delta-clpP delta-lon delta-hslV, growth: N-lim chemostat, doubling time 6 h
[2] = E. coli NCM3722 delta-clpP, growth: N-lim chemostat, doubling time 6 h
[3] = E. coli NCM3722 delta-lon, growth: N-lim chemostat, doubling time 6 h
[4] = E. coli NCM3722 delta-smpB, growth: N-lim chemostat, doubling time 6 h
[5] = wild type E. coli NCM3722, growth: C-lim chemostat, doubling time 6 h
[6] = wild type E. coli NCM3722, growth: C-lim chemostat, doubling time 12 h
[7] = wild type E. coli NCM3722, growth: N-lim chemostat, doubling time 6 h
[8] = wild type E. coli NCM3722, growth: N-lim chemostat, doubling time 12 h
[9] = wild type E. coli NCM3722, growth: P-lim chemostat, doubling time 6 h
[10] = wild type E. coli NCM3722, growth: P-lim chemostat, doubling time 12 h
[11] = E. coli NCM3722 delta-hslV, growth: N-lim chemostat, doubling time 6 h
[12] = wild type E. coli NCM3722, growth: C-lim chemostat, doubling time 3 h

## MESKRLDNAALAAGISPNYINAHGKPQSISAETKRRLLDAMHQRTATKVAVTPVPNVMVYTSGKKMPMVVEGSGEYSWLLTTEEGTQYKGHVTGGKAFNLPTKLPEGYHTLTLTQDDQRAHCRVIVAPKRCYEPQALLNKQKLWGACVQLYTLRSEKNWGIGDFGDLKAMLVDVAKRGGSFIGLNPIHALYPANPESASPYSPSSRRWLNVIYIDVNAVEDFHLSEEAQAWWQLPTTQQTLQQARDADWVDYSTVTALKMTALRMAWKGFAQRDDEQMAAFRQFVAEQGDSLFWQAAFDALHAQQVKEDEMRWGWPAWPEMYQNVDSPEVRQFCEEHRDDVDFYLWLQWLAYSQFAACWEISQGYEMPIGLYRDLAVGVAEGGAETWCDRELYCLKASVGAPPDILGPLGQNWGLPPMDPHIITARAYEPFIELLRANMQNCGALRIDHVMSMLRLWWIPYGETADQGAYVHYPVDDLLSILALESKRHRCMVIGEDLGTVPVEIVGKLRSSGVYSYKVLYFENDHEKTFRAPKAYPEQSMAVAATHDLPTLRGYWECGDLTLGKTLGLYPDEVVLRGLYQDRELAKQGLLDALHKYGCLPKRAGHKASLMSMTPTLNRGLQRYIADSNSALLGLQPEDWLDMAEPVNIPGTSYQYKNWRRKLSATLESMFADDGVNKLLKDLDRRRRAAAKKK
[1]
  total protein half-life in vivo: 6.24 ± 0.17 h
[2]
  total protein half-life in vivo: 6.29 ± 0.23 h
[3]
  total protein half-life in vivo: 4.12 ± 1.7 h
[4]
  total protein half-life in vivo: 5.57 ± 0.12 h
[5]
  total protein half-life in vivo: 6.27 ± 0.46 h
[6]
  total protein half-life in vivo: 13.5 ± 1.4 h
[7]
  total protein half-life in vivo: 6.03 ± 0.061 h
[8]
  total protein half-life in vivo: 12.1 ± 0.58 h
[9]
  total protein half-life in vivo: 5.25 ± 0.14 h
[10]
  total protein half-life in vivo: 10.3 ± 0.19 h

## MAGKTMIPLLAFAAWSGTGKTTLLKKLIPALCARGIRPGLIKHTHHDMDVDKPGKDSYELRKAGAAQTIVASQQRWALMTETPDEEELDLQFLASRMDTSKLDLILVEGFKHEEIAKIVLFRDGAGHRPEELVIDRHVIAVASDVPLNLDVALLDINDVEGLADFVVEWMQKQNG
[1]
  total protein half-life in vivo: 4.44 ± 0.4 h
[2]
  total protein half-life in vivo: 4.61 h
[11]
  total protein half-life in vivo: 4.37 ± 0.056 h
[3]
  total protein half-life in vivo: 4.48 ± 0.64 h
[4]
  total protein half-life in vivo: 3.88 ± 0.7 h
[12]
  total protein half-life in vivo: 3.22 ± 0.15 h
[5]
  total protein half-life in vivo: 5.23 ± 0.18 h
[6]
  total protein half-life in vivo: 9.51 h
[7]
  total protein half-life in vivo: 4.01 ± 0.23 h
[8]
  total protein half-life in vivo: 5.54 ± 1.1 h
[9]
  total protein half-life in vivo: 5.85 h
[10]
  total protein half-life in vivo: 11 ± 0.32 h

## MKRSLLFSAVLCAASLTSVHAAQPITEPEFASDIVDRYADHIFYGSGATGMALVVIDGNQRVFRSYGETRPGNNVRPQLDSVVRIASLTKLMTSEMLVKLLDQGTVKLNDPLSKYAPPGARVPTYNGTPITLVNLATHTSALPREQPGGAAHRPVFVWPTREQRWKYLSTAKLKAAPGSQAAYSNLAFDLLADALANASGKPYTQLFEEQITRPLGMKDTTYTPSPDQCRRLMVAERGASPCNNTLAAIGSGGVYSTPGDMMRWMQQYLSSDFYQRSNQADRMQTLIYQRAQFTKVIGMDVPGKADALGLGWVYMAPKEGRPGIIQKTGGGGGFITYMAMIPQKNIGAFVVVTRSPLTRFKNMSDGINDLVTELSGNKPLVIPAS [P0AD70]
[1]
  total protein half-life in vivo: 3.75 ± 0.98 h
[2]
  total protein half-life in vivo: 2.49 ± 0.33 h
[11]
  total protein half-life in vivo: 3.37 ± 0.26 h
[3]
  total protein half-life in vivo: 3.68 ± 0.084 h
[4]
  total protein half-life in vivo: 3.17 ± 0.11 h
[12]
  total protein half-life in vivo: 1.96 ± 0.34 h
[5]
  total protein half-life in vivo: 3.73 ± 0.71 h
[6]
  total protein half-life in vivo: 5.69 ± 1.3 h
[7]
  total protein half-life in vivo: 3.96 ± 1 h
[8]
  total protein half-life in vivo: 5.33 ± 0.35 h
[9]
  total protein half-life in vivo: 3.62 ± 0.42 h
[10]
  total protein half-life in vivo: 6.14 ± 1.1 h

## MTDIAQLLGKDADNLLQHRCMTIPSDQLYLPGHDYVDRVMIDNNRPPAVLRNMQTLYNTGRLAGTGYLSILPVDQGVEHSAGASFAANPLYFDPKNIVELAIEAGCNCVASTYGVLASVSRRYAHRIPFLVKLNHNETLSYPNTYDQTLYASVEQAFNMGAVAVGATIYFGSEESRRQIEEISAAFERAHELGMVTVLWAYLRNSAFKKDGVDYHVSADLTGQANHLAATIGADIVKQKMAENNGGYKAINYGYTDDRVYSKLTSENPIDLVRYQLANCYMGRAGLINSGGAAGGETDLSDAVRTAVINKRAGGMGLILGRKAFKKSMADGVKLINAVQDVYLDSKITIA [P0A991]
[1]
  total protein half-life in vivo: 6.08 ± 0.41 h
[2]
  total protein half-life in vivo: 5.88 ± 0.5 h
[11]
  total protein half-life in vivo: 6.17 ± 0.49 h
[3]
  total protein half-life in vivo: 5.99 ± 0.7 h
[4]
  total protein half-life in vivo: 5.21 ± 0.23 h
[12]
  total protein half-life in vivo: 3.37 ± 0.44 h
[5]
  total protein half-life in vivo: 6.705 ± 0.067 h
[6]
  total protein half-life in vivo: 12.9 ± 0.75 h
[7]
  total protein half-life in vivo: 5.51 ± 0.26 h
[8]
  total protein half-life in vivo: 10.1 ± 0.44 h
[9]
  total protein half-life in vivo: 6.06 ± 0.11 h
[10]
  total protein half-life in vivo: 13.3 ± 0.99 h

## MTDSELMQLSEQVGQALKARGATVTTAESCTGGWVAKVITDIAGSSAWFERGFVTYSNEAKAQMIGVREETLAQHGAVSEPVVVEMAIGALKAARADYAVSISGIAGPDGGSEEKPVGTVWFAFATARGEGITRRECFSGDRDAVRRQATAYALQTLWQQFLQNT [P0A6G3]
[1]
  total protein half-life in vivo: 6 ± 0.73 h
[11]
  total protein half-life in vivo: 4.97 ± 0.2 h
[3]
  total protein half-life in vivo: 5.11 ± 0.27 h
[4]
  total protein half-life in vivo: 4.06 ± 0.093 h
[5]
  total protein half-life in vivo: 5.59 ± 0.56 h
[6]
  total protein half-life in vivo: 11 ± 1.9 h
[7]
  total protein half-life in vivo: 4.67 ± 0.057 h
[8]
  total protein half-life in vivo: 7.78 ± 0.54 h
[9]
  total protein half-life in vivo: 5.897 ± 0.055 h
[10]
  total protein half-life in vivo: 11.7 ± 0.88 h

## MELYLDTSDVVAVKALSRIFPLAGVTTNPSIIAAGKKPLDVVLPQLHEAMGGQGRLFAQVMATTAEGMVNDALKLRSIIADIVVKVPVTAEGLAAIKMLKAEGIPTLGTAVYGAAQGLLSALAGAEYVAPYVNRIDAQGGSGIQTVTDLHQLLKMHAPQAKVLAASFKTPRQALDCLLAGCESITLPLDVAQQMISYPAVDAAVAKFEQDWQGAFGRTSI
[1]
  total protein half-life in vivo: 4.96 ± 0.38 h
[2]
  total protein half-life in vivo: 4.345 ± 0.017 h
[11]
  total protein half-life in vivo: 4.474 ± 0.0021 h
[3]
  total protein half-life in vivo: 4.44 ± 0.26 h
[4]
  total protein half-life in vivo: 4.3899 ± 0.004 h
[12]
  total protein half-life in vivo: 2.703 ± 0.021 h
[5]
  total protein half-life in vivo: 5.36 h
[6]
  total protein half-life in vivo: 8.19 ± 0.81 h
[7]
  total protein half-life in vivo: 3.81 ± 0.38 h
[8]
  total protein half-life in vivo: 7.04 ± 2.2 h
[9]
  total protein half-life in vivo: 5.72 ± 0.61 h
[10]
  total protein half-life in vivo: 10 ± 0.64 h
